Measured values as given in PMC11742690.

Target: AMDHD1 (UniProt Q96NU7)
Assay: co-immunoprecipitation, western blot
Conditions: sites S464,S465,S467

binding against the reference (reference: wild-type SMAD3)	binding against the reference (reference: wild-type SMAD2)	Substance
lost	–	SMAD3 (from UniProt P84022) SMAD3-A (three C-terminal serines to alanine)
–	lost	SMAD2 (from UniProt Q15796) SMAD2-A (S464A/S465A/S467A)
